# B1: DNA repair protein RAD9 (Saccharomyces cerevisiae), P14737 (parent)
# chain: MSGQLVQWKSSPDRVTQSAIKEALHSPLADGDMNEMNVPVDPLENKVNSTNIIEGSPKANPNPVKFMNTSEIFQKSLGLLDESPRHDDELNIEVGDNDRPNANILHNERTPDLDRIANFFKSNRTPGKENLLTKYQSSDLEDTPLMLRKKMTFQTPTDPLEQKTFKKLKSDTGFCYYGEQNDGEENASLEVTEADATFVQMAERSADNYDCALEGIVTPKRYKDELSKSGGMQDERVQKTQIMISAESPNSISSYDKNKITGNGRTTRNVNKVFNNNEDNIGAIEEKNPVKKKSENYSSDDLRERNNQIIQSNESEEINELEKNLNVSGRENDVNNLDIDINSAVSGTPSRNNAEEEMYSSESVNNREPSKKWIFRYSKDKTENNSNRSTQIVNNPRTQEMPLDSISIDTQPLSKSFNTETNNELETQIIVSSLSQGISAQKGPVFHSTGQTEEIKTQIINSPEQNALNATFETPVTLSRINFEPILEVPETSSPSKNTMSKPSNSSPIPKEKDTFNIHEREVETNNVFSNDIQNSSNAATRDDIIIAGSSDFNEQKEITDRIYLQLSGKQISDSGSDETERMSPNELDTKKESTIMSEVELTQELPEVEEQQDLQTSPKKLVVEEETLMEIKKSKGNSLQLHDDNKECNSDKQDGTESLDVALIEHESKGQSSELQKNLMQLFPSESQEIIQNRRTIKRRQKDTIEIGEEEENRSTKTSPTKHLKRNSDLDAASIKREPSCSITIQTGETGSGKDSKEQSYVFPEGIRTADNSFLSKDDIIFGNAVWCQYTWNYKFYPGILLEVDTNQDGCWIYFETGRSLTKDEDIYYLDIRIGDAVTFDGNEYVVVGLECRSHDLNIIRCIRGYDTVHLKKKNASGLLGKRTLIKALSSISLDLSEWAKRAKIILEDNEKNKGDAYRYLRHPIRGRKSMTNVLSPKKHTDDEKDINTHTEVYNNEIESSSEKKEIVKKDSRDALAEHAGAPSLLFSSGEIRTGNVFDKCIFVLTSLFENREELRQTIESQGGTVIESGFSTLFNFTHPLAKSLVNKGNTDNIRELALKLAWKPHSLFADCRFACLITKRHLRSLKYLETLALGWPTLHWKFISACIEKKRIVPHLIYQYLLPSGESFRLSLDSPSKGGIIKSNNIFSFYTQFLRGSNLRDQICGVKKMLNDYIVIVWGRSELDSFVKFAFACLSAGRMLTIDLPNIDVDDTEPLLNALDSLVPRIGSELSNRKLKFLIYANENNGKSQMKLLERLRSQISLKFKKFNYIFHTESKEWLIQTIINEDTGFHDDITDNDIYNTISEVR
# Variants of: B1
# Conditions: with h2a1_yeast HTA1, P04911
# Sequence of h2a1_yeast HTA1, P04911 (P04911 whole entry): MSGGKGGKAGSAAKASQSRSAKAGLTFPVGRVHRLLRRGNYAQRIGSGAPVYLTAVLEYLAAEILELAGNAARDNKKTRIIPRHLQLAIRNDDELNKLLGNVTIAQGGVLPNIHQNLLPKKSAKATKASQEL
row,effect of a mutation on the interaction,Variant
1,disrupting interaction,K1088M

# — IntAct's records for PubMed 17721446
